According to the nanobody polyreactivity screen of Harvey et al. (2022):

Test: yeast display, Sf9 membrane polyspecificity reagent, FACS + sequencing; frameworks hold sequencing errors
Procedure, shortened: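 Nanobodies from a synthetic yeast display library (Saccharomyces cerevisiae BJ5465), induced 36–48 hours with galactose, were stained 1 hour at 4 °C with 10% biotinylated, detergent-solubilized Sf9 membrane reagent, enriched on streptavidin microbeads, then FACS-sorted. Anti-HA (expression) and streptavidin (reagent binding) fluorescence set low and high (top ~1%) gates. Polyreactivity labels come from the gate of origin. Genes were colony-PCR amplified, MiSeq 2 × 250 sequenced and filtered by CDR length.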

Sequence	polyreactivity (PSR sort gate)
QEQLQESGDGLVQAGGSLRLSSAASGTIFSDYGMGGYRQAPGKERELLAGISDGCNTNYTDSVKGRFTISRDNAHRVSADEQPETGGYRGVLLRGSERWLLFYVYWGQGTQGTVSS	high polyreactivity
QVQLVESGGGLVQAGGSLRLSCAASGFTIHGNAMGWYRPAPGKERELVAGISSSGASTYYADSVKGRFTISRDNAKNTVFLQMNSLKPEDTAVYYCAVRYYGRYLRYNYWGQGTQVTVSS	high polyreactivity
QVQLVESGGGLVQAGGSLRLSCAASGSTFDDYAMVWYRQAPGKDREFVAAISFSGDSTYYADSVKGRFTISRDNAKNTVYLQMNRLKPEDTAVYYCAAEVPAEENGYAYDYWGQGTQVTVSS	low polyreactivity
QVQLVESGGGLVQAGGSLRLSCAASGSIFTPYVMGWYRQAPGKERELVAAISKRGTRTYYADSVTGRFTISRDNAKNTVYFQMNSLKPEDTAVYYCNAAVDYGSEHDYWGQGTQVTVSS	high polyreactivity
QVQLVESGGGLVQAGGSLRLSCAASGSTFDHNVMGWYRQAPGKERELVAAISGSGGSTYYADSVKGRFTISRDNAKNTVYLQMNSLKPEDTAVYYCAARYYVGHRGYYSWGQGTQVTVSS	high polyreactivity
QVQLVESGGGLVQAGGILSLSCAASGFIFLYNMGWYRQAPGKEWQLVADISTGVSTNYADSVKGRFTISRDNAKNSVYLQMNSLKPEDTAVYYCAAVYYNGYQYEPWYDYWGQGTQVTVSS	low polyreactivity
QVQLVESGGGLVQAGGSLRLSCAASGLTFKRNAMGWYRPAPGKERELVAAIRYSTDSTNCADSVKGRFTISRDNAKNTVYLQMNSLKPEDTAVYYCAKDKQDYEYWGQGTQVTVSS	low polyreactivity
QVQLVESGGGLVQAGGSLRLSCASSGITFVVNAMVWYRQAPGKEREFVAAIDVRGGTTYYADSVKGRFTISRDNAKNSVYLQMNSLKPEDTAVYYCAASSTSGYDWGQGTQVTVSS	low polyreactivity
QVQLVESGGGLVQAGGSLRLSCAASGSIFPWYTMGWYRQAPGKEREFVASISSSASDTYYADSVKGRFTISRDNAKNTVYLQMNSLKPEDTAVYYCAARAYYRYWHGNYRHYSFDYWGQGTQVTVSS	high polyreactivity
QVHLVESGGGLVKAGGSLRLSCAASGISFGSNVMGLYRQAPGKERELVAAINYGGGSTYYADSVKGRFTISRDNAKNTVYLQMNSLKPEDTAVYYCAARGSRVYRYDYWGQGTQVTVSS	low polyreactivity
QVQLVESGGGLVQAGGSLRLSCAASGGTFALYAMGWYRQAPGKERELVASISFNGGSTYYADSVKGRFTISRDTAKNTVYLQMNSLKPEDTAVYYCNTGYQWGVYESQTAEEDYWGQGTQVTVSS	low polyreactivity
QVQLVESGGGLVQAGGSLRLSCAASGFIFATYNMGWYRQAPGKERELVAAITWRGGSTYYADSVKGRFTISRDNAKITVYLQMNSLKPEDTAVYYCAAQDVYSYRYVEDDYWGQGTQVTVSS	low polyreactivity
QVQLVESGGGLVQAGGSLRLSCAASGRTFLWNAMGWYRQAPGKERELVARINLSGGRTYYADSVKGRFTISRDNAKNTVYLQMNSLKPEDTAVYYCAATVVRYRRDSWGQGTQVTVSS	low polyreactivity
QVQLVESGGGLVQAGGSLRLSCAASGSTFSAYAMGWYRQAPGKERELVAAISRSGTRTYYADSVKGRFTISRDNAKNNVYLQMNSLKPEDTAVYYCARYAGRLSYRYEYWGQGTQVTVSS	high polyreactivity
QVQLVESGGGLVQAGGSLRLSCAASGSTFNDYAMGWYRQAPGKERELVAGITWRGTSTYYADSVKGRFTISRDNAKNTVYLQRNSLKPEDTAVYYCAADVYYLLWLWMDYWGQGTQVTVSS	low polyreactivity
QVQLVESGGGLVQAGGSLRLSCAASGHTFAYNAMGWYRQAPGKEREFVAAITWSTDNTYYADSVKGRFTISRDNAKNTVYLQMNSLKPEDTAVYYCAKDAAESYRYGYWGQGTQVTVSS	low polyreactivity
QVQLVESGGGLVQAGGRLRLSCAASGSIFDIYAMGWYRQAPGKERELVASIRRRGGSTYYADSVKGRFTISRDNAKNTVYLQKNSLKPEDTAVYYSNARRVWLRTTGTNWPERGYWGQGTQVTVSS	high polyreactivity
QVQLVESGGGLVQAGGSLRLSCAASGSIFNRYAMGWSRQAPGKARELVPAISRRGAGTYYADSVKGRFTISRDNAKHTVYLQMNSLKPDDTAVYYCAAAGYFPTAGSRRAYYYCGQGTQVTVSS	high polyreactivity
QVQLVESGGGLVQAGGSLSLSCAASGSIFYVNTMGWYRQAHGKERELVADISSGDSTYYADSVKGRFTISRDNAKNTVYFQMNSLKPEDTAVYFCNADVYSWVSGKEGDYWGQGTQVTVSS	low polyreactivity
QVHLVESGGGLVQAGGSLRLSCAASGLTFYSNAMRWYRQAPGKERELVARISTGGSTYADSVKGRFTISRDNAKNTVYLQMNSLKPEDTGVFYCAKLPPRGIDDEYWGQATQVTVSS	low polyreactivity
QVQLVESGGGLVQAGGSLRLSCAASGSIFYGNTMGWYRQAPGKERELVAAIRSVGRTYYADSVKGRFTISRDNAKNTVYLQMNSLKPEDTAVYYCAADPRSYFTSEYWGQGTQVTVSS	high polyreactivity
QVQLVESGGGLVQAGGSLRLSCAASGRTFAWYTMGWYRQAPGKERELVAAISGSGGSTYYADSVKGRFTISRDNAKNTVYLQMNSLKPEDTAVYYCSRRVDSYYGHTRYYYWGQGTQVTVSS	high polyreactivity

Sequence	polyreactivity (PSR sort gate)
QVQLVESGGGLVQAGGSLRLSCAASGSIIDTYAMGWYRQAPGKERELVASWSGGSTYYADSVKGRFTISRDNAKNTVYLQMNSLKPEDTAVYYCAKDYYVQPPGTRDDYWGQGTQVTVSS	low polyreactivity
QVQLVESGGGLVQAGGSLRLSCAASGFTFTWYVMGWYRQAPGKERELVAAISRSGGSTYYADSVKGRFTISRDNAKNTVYLQMNSLKPEDTAVYYCAAVGTSRYDYWGQGTQGTVSS	high polyreactivity
QLQLVESGGGLVQAGCSLRLSFAASVIICWANAMGCYIHAPGKERELVASITSGGSTYYADSVKGRFTISRDNAKTTVYFQMNSLKPEDTAVYYCAADPYGWWDWHTLGTYDYWGQGTQVTVSS	low polyreactivity
QVQLVESGVGLVQAGGSLRLSCAASGSIFVYYAMGWYRPAPGKERELVAAINFRGGNTYYADSVKGRFTISRDNAKNTVYLQMNRLKPEDTAVYYCAADYRWKWIGGARYDYWGQGTQVTVSS	low polyreactivity
QVQLVETGGGLVQAGGSLRLSCAASGRTFYFNTMGWYRQAPGKERELVAAISSGVNTYYADSVKGRFTISRDNAKNTVYLQMNSLKPEDTAVYYCAASARTYVQSGYWGQGTQVTVSS	high polyreactivity
QVQLVESGGGLVQAGGSLRLSCAASGSIFYYYAMGWYRPAPGKERELVAAINSSGGNTYYADSVKGRFTISRDNAKNTVYLQMNSLKPEDTAVYYCAAASRSTNYNYWGQGTQVTVSS	high polyreactivity
QVQLVESGGGLVQAGGSLRLSCAASGSTLFLYAMGWYRQAPGKERELVAAITWSGGSTYYADSVKGRFTISRDNAKNTVYLQMNSLKPEDTAVYYCAKYGRYFWNSGVDYWGQGTQVTVSS	high polyreactivity
QVQLVESGGGLVQAGGSLRLSCAASGIILRYYAMGWYRQAPGKERELVAAITRGGSTNYADSVKGRFTISRDNAKNTVYLQMNSLKPEVTAVYYCAADVVFWFSNVAWRDFGYWGQGTQVTVSS	low polyreactivity
QVQLVESGGGLVQAGGSLRLSCAASGSIFTFYAMGWYRQAPGKERELVATINRIGGNTYYADSVKGRFTISRDNAKNTVYLQMNSLKPEDTAVYYCAKLYGSANGYDYWGQGTQVSVSS	low polyreactivity
QVQLVESGGGLVQAGGSLRLSCAASGSIFEYNAMGWYRQAPGKERELVAAISGNGGRTYYADSVKGRFTISRDNAKNTVYLQMNSLKPEDTAVYYCNAQTYYSTYKSTFYYWGQGTQVTVSS	high polyreactivity
QVQLVESGGGLVQAGGSLRLSCAASGRTFRNYAMGWYRQAPGKEREFVAAITGRGGSTYYADSVKGRFTISRDNAKNTVYLQMNSLKPEDTAVYYCAAVSGRTGQRTYYPYYYWGQGTQVTVSS	high polyreactivity
QVQLVESGGGLVQAGGSLRLSCAASGSTLIANAMGWYRQAPGKERELVAGITYRGGDITTYADSVKGRFTISRDNAKNTVYLQKTSLKPEDTAVYYCAARVVWPTWARGGYWGQGTQVTVSS	low polyreactivity
QVQLVESGGGLVQAGGSLRLSCAASGFTFTSNIMGWYRQATGKERELVADISASDGRTYYADSVKGRFTISRDNAMNTVYLQMNSLKPEDTAVYYCNVSSRRLRGLDYWGQGTQVTVSS	low polyreactivity
QVQLVESGGGLVQAGGSLRLSCAASGRTFKFYAMGWYRQAPGKERELVATITSGGSTYYADSVKGRFTISRDNAKNTVYLQMNSLIPEDTAVSYCNAAKTYPDVYEYDYWGQGTQVTVSS	high polyreactivity
QVQLVESGGGLVQAGGSLRLSCAASGRIFVLNAMGWYRQAPGKERELVAAISGSGSRTYYADSVKGRFTISRDNAKNTVYLQMNSLKPEDTAVYYCNTVSRRSEHTYDYWGQGTQVTVSS	high polyreactivity
QVQLVESGGALVQAGGSLRLSCAASGSIFGLKDMRWYRPAPGKEREFVAAITWSGGSSTYYADSVKGRFTISRDNAKITVSLQMNSVKTEDTAVYYCAADDRTLPADVDYWGQGTQVTVSS	high polyreactivity
QVQLVESGGGLVQAGGSLRLSCAASGSTFRTNAMGWYRQAPGKERELVAGITSGTSTNYADSVKGRFTISRDNAKNTVYLQMNSLKPEDTAVYYCNTDRIWYGPEYDYWGQGTQVTVSS	low polyreactivity
QVQLVESGGGLVQAGGSLRLSCAASGSIFTHYAMGWYRQAPGKERELVAAITWSGGSTYYADSVKGRFTISRDNAKYTVYLQMNSLKPEDTAVYYCNVAWVGVSLVYGPFEYDYWGQGTQVTVSS	high polyreactivity
QVQLVDSRGGLVQAGGSLRLSCAASGFTFWYYAMGWYRQAPGKERELVAAITNGGGSKYYADSVKGRFTISRDNAKNTFYLQMNSLKPEDTAVFYCAKDGHSYYPWEYDYWGQGTQVTVSS	low polyreactivity
QVQLVESGGGLVQAGGSLRLSCAASGSIFNRYTMGWYRPAHGKQRELVAAISRGGITYYADSVKGRFTISRDNAMNTVYLQMNSLKPEDSAVYYCAADGFTRWGRYDYWGQGTQVTVSS	high polyreactivity
QVQLVESGGGLVQAGGSLRISCAASGFILTGYTMGWYRQAPGKERELVAAISWSGARTYYADSVKGRFTISRDNAMNTVYLQMNSLKPEDTAVYYCARDYYRPTQRYDYWGQGTQVTVSS	high polyreactivity
